Results taken from article PMC9256742, “Structure and function of cancer-related developmentally regulated GTP-binding protein 1 (DRG1) is conserved between sponges and humans” (Scientific Reports, 2022).

T1: recombinant human DRG family regulatory protein 1, His-tagged (human, UniProt Q8WU90 1-426)
T1 construct: human DFRP1 (LEREPO4/ZC3H15), cDNA from a commercially available product; also called HsaDFRP1; human DFRP1
T1 sequence (looked up): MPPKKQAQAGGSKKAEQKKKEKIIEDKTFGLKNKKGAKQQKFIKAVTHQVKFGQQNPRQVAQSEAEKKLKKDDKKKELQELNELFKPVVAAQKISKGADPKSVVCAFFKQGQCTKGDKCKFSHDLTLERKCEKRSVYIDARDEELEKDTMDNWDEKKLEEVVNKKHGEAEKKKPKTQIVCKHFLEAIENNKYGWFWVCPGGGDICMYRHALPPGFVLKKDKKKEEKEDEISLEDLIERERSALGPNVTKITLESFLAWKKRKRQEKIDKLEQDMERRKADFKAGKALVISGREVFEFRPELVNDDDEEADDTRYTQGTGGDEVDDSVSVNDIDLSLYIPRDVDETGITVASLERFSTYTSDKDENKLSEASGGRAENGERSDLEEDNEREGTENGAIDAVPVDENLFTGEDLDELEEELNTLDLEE


Assays:
[1] = molecular target: recombinant sponge (Eunapius subterraneus) DRG family regulatory protein 1, His-tagged (Eunapius subterraneus); test: SEC; Superdex 200 Increase 10/300 GL, 10 mM phosphate buffer, 140 mM NaCl, pH 7.4, 4 °C; column calibrated with standards; fractions analysed by SDS-PAGE and anti-His Western blot
[2] = molecular target: recombinant sponge (Eunapius subterraneus) developmentally regulated GTP-binding protein 1, His-tagged (Eunapius subterraneus)
Sequence of recombinant sponge (Eunapius subterraneus) developmentally regulated GTP-binding protein 1, His-tagged (Eunapius subterraneus) (main, as listed by the source): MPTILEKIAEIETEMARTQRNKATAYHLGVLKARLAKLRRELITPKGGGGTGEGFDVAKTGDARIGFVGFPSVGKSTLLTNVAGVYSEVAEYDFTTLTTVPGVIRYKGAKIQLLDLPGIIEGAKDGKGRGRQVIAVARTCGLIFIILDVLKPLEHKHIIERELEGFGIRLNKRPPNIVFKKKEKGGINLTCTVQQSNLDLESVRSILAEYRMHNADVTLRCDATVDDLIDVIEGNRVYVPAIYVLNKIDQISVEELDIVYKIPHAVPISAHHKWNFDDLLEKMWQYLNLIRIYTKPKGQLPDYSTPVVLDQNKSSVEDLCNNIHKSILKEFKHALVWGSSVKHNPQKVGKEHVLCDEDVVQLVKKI

[3] = molecular target: T1, recombinant human DRG family regulatory …; test: cross-linking; glutaraldehyde cross-linking of a mixture of DRG1 and DFRP1 (2 ug of each), or of DFRP1 alone, in PBS, 0.125-0.5% glutaraldehyde, 30 min, room temperature (25 °C); SDS-PAGE, Coomassie; conditions: both partners purified

stoichiometry N [1]	GTPase activity of EsuDRG1 (GTPase-Glo luminescence assay) with equimolar EsuDFRP1, 1.2 uM each, against EsuDRG1 alone [2]	binding result [3]	Molecule
4	2.5 fold		recombinant sponge (Eunapius subterraneus) DRG family regulatory protein 1, His-tagged (natural protein)
		binds	recombinant human developmentally regulated GTP-binding protein 1, His-tagged (natural protein, UniProt Q9Y295 1-367, looked up, human DRG1, cDNA from a commercially available product; also called HsaDRG1; HsaDRG1-His) MSSTLAKIAEIEAEMARTQKNKATAHHLGLLKARLAKLRRELITPKGGGGGGPGEGFDVAKTGDARIGFVGFPSVGKSTLLSNLAGVYSEVAAYEFTTLTTVPGVIRYKGAKIQLLDLPGIIEGAKDGKGRGRQVIAVARTCNLILIVLDVLKPLGHKKIIENELEGFGIRLNSKPPNIGFKKKDKGGINLTATCPQSELDAETVKSILAEYKIHNADVTLRSDATADDLIDVVEGNRVYIPCIYVLNKIDQISIEELDIIYKVPHCVPISAHHRWNFDDLLEKIWDYLKLVRIYTKPKGQLPDYTSPVVLPYSRTTVEDFCMKIHKNLIKEFKYALVWGLSVKHNPQKVGKDHTLEDEDVIQIVKK
